Entries after “also recorded” stand apart in the source; their conditions may differ. Read-outs that look alike come from different tables or passages of the source. Where a SMILES comes first, the peptide text is derived from it. [ ]: non-standard residue; d: D form. The star is where a group is joined. Dolaproine = CO[C@@H]([C@@H]1CCCN1)[C@@H](C)C(=O)O; Dil = CC[C@H](C)[C@H](NC)[C@@H](CC(=O)O)OC; X1 = C[C@@H](N*)[C@@H](O)c1ccccc1; NMeV = CN[C@H](C(=O)O)C(C)C

This is an account of results in patent US20230218776A1, “ANTI-NTB-A ANTIBODIES AND RELATED COMPOSITIONS AND METHODS” (SEAGEN INC., priority 2015, published 2023).

Data set [1] deals with Normal human T cells. The data set can be described thus: ADCC, flow cytometry-based assay with NK effector cells. In kind it is cell-based. Particulars: NK effector to target 10:1, 4 hours. As to the method:
A flow cytometry-based assay was used to measure ADCC activity on normal human T cells. PKH2-labeled normal human T cell targets were bound with titrations of antibody (0.1 ng/mL-10 μg/mL) and then incubated with effector NK cells at an effector to target ratio of 10:1 for 4 hours at 37° C., 5% CO2. Viability was determined by 7-AAD incorporation as measured on the FACsCalibur flow cytometer (BD BioSciences, San Jose, Calif.).

Data set [2] relates to Normal human T cells. The data set can be described thus: Complement-dependent cytotoxicity (CDC), Sytox Green. In kind it is cell-based. Particulars: 0.02-50 μg/mL, human serum, 2 hours. How it is done: (§1) Complement-Dependent Cytotoxicity (CDC): Normal human T cells (All Cells, Alameda, Calif.) or cancer cell lines (ATCC, Manassas, Va.) were labelledlabeled with 5 μM Sytox Green (Life Technologies, Grand Island, N.Y.), then bound with serial a serial dose titrations of anti-human NTB-A h20F3 antibody or PBD dimer ADCies (0.02-50 μg/mL) in RPMI1640 media+1020% human serum (Complement Technology, Tyler, TX or Solomon Park Research Laboratories, Kirkland, Wash. Cells were incubated at 37° C., 5% CO2 for 2 hours, and fluorescence from lysed cells was measured with an Envision plate reader (Perkin Elmer, Waltham, Mass.). Data was expressed as a percentage of maximum cell lysis determined with a positive control of 1% TritonX-100-treated cells (Sigma, ST. Louis, Mo.).
(§2) Three cell types were used for analysis: normal human T cells, WIL2-S cells, and Raji cells. Expression of relevant receptors on each cell type is found in Table 7 and is indicated as number of receptor per cell.

For data set [3], the system named is Normal human T cells. Kind of data set: ADCP with monocyte-derived macrophages. Type of data set: cell-based. Particulars: dilution series starting at 2 μg/mL. As to the method: To assess NTB-A mediated ADCP activity, normal T lymphocytes or tumor cells were labeled with the red fluorescent membrane dye, PKH26, then labeled with antibody or ADC in a 5-point, 10-fold dilution series starting at 2 μg/mL. Cells were then incubated for 30 minutes on ice and washed twice with PBS. Cells were mixed with monocyte-derived macrophages for one hour at 37° C. The cell mixture was then stained with Alexa Fluor 488-conjugated murine anti-CD11b to label macrophages and analyzed by flow cytometry to detect PKH26+CD11b+ double-labeled fluorescent cells. Phagocytic activity was calculated as (percent PKH26+CD11b+)/(percent CD11b+cells) multiplied by one hundred.

The test system of data set [4] is resting human T lymphocytes. Kind of data set: Cytotoxicity on resting human lymphocytes, Cell-Titer Glo, 96 hours. In kind it is cell-based. How it is done:
(§3) To assess the cytotoxic effects of anti-NTB-A ADCs on resting human T and B lymphocytes, purified cells were seeded into black 96-well assay plates. Cells were then treated with anti-NTB-A ADCs starting at 10 ug/mL titrated down 5-fold for a total of 8 dilution points. For free drug treatment, cells were dosed with either MMAE starting at 1,000 nM or free PBD dimer starting at 100 nM titrated down 5-fold for a total of 8 dilution points. Plates were incubated at 37° C., 5% CO2 for 96 hours then allowed to equilibrate to room temperature. An equal volume of Cell-Titer Glo reagent was added to each well and the plate was incubated an additional 30 minutes at room temperature. Plates were then read on a Perkin Elmer Envision plate reader. Dose effect curves and IC50 values were calculated using GraphPad Prism software.

Data set [5] concerns resting human B lymphocytes. The data set is described as above. In kind it is cell-based. Particulars: for IC50: 96 hours; for ADC concentration with cytotoxic effect on resting B lymphocytes: resting human B lymphocytes, 96 hour cytotoxicity assay. As to the method:
as §3

The test system of a further data set is cynomolgus-NTB-A. Kind of data set: Binding to 293-F17 cells overexpressing cynomolgus-NTB-A, flow cytometry. Particulars: 293-F17/cynomolgus-NTB-A cells; 20 μg/mL antibody. As to the method: (§4) Dose titrations of the anti-human NTB-A antibodies conjugated to Alexa Fluor 647 (, h20F3_HDLD-AF647) were used to generate saturation binding curves. Antigen positive Ramos cells were plated at 1×10^5 cells per well in a 96 well V-bottom plate (Thermo Scientific, Rochester, N.Y.). Three-fold serial dilutions of 2× concentrated antibodies were prepared in FACs buffer (PBS+2% fetal bovine serum) and were added to the cells in duplicate. The antibody solutions were incubated with cells for 1 hour on ice, protected from light. The cells were washed twice with FACs buffer and analyzed on the LSRII flow cytometer (BD BioSciences, San Jose, Calif.). KD values were determined with GraphPad Prism software (La Jolla, Calif.). Anti-human NTB-A antibodies h20F3_HDLD and chimeric 20F3 were tested for binding to 293-F17 cells overexpressing cynomolgus-NTB-A. 293-F17/cynomolgus-NTB-A cells were plated at 5×10^5 cells/well in FACS buffer (PBS+2% fetal bovine serum+0.02% azide) and incubated with 20 μg/mL antibody for 30 minutes on ice. The cells were washed twice and stained with 30 μg/mL goat anti-human IgG-PE (Jackson ImmunoResearch, West Grove, Pa.) for 30 minutes, on ice and protected from light. Cells were again washed twice with FACs buffer. Stained cells were analyzed on the FACs Calibur flow cytometer (BD BioSciences, San Jose, Calif.).
(A flow cytometer gives signals particle by particle.)

In the next data set the target is T1, human NTB-A (Homo sapiens, UniProt Q96DU3).
T1 construct: endogenous in cells; host or cells: Ramos cells
T1 sequence (Q96DU3 22-332): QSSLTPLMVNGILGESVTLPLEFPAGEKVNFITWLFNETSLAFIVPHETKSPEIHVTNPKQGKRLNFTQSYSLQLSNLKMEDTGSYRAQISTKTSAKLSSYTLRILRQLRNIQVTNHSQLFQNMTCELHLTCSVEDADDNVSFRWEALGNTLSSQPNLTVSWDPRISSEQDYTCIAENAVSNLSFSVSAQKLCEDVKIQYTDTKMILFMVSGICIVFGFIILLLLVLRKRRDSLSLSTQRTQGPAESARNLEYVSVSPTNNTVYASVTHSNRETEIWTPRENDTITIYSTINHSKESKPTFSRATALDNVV
Kind of data set: Saturation binding (Kd) of AF647-labelled antibody on Ramos cells. Particulars: 1 hour on ice. As to the method:
as §4

For data set [6], the system named is WIL2-S cell line. Kind of data set: Complement-dependent cytotoxicity (CDC), Sytox Green. Type of data set: cell-based. Particulars: 0.02-50 μg/mL, human serum, 2 hours. How it is done:
as §1, §2

The test system of another data set is Raji cell line. Described as above. In kind it is cell-based. Particulars: 0.02-50 μg/mL, human serum, 2 hours. How it is done: as §1, §2
For data set [7], the system named is WIL2-S cell line. Kind of data set: ADCC, chromium-51 release with NK effector cells. Particulars: NK effector to target 10:1, 4 hours. Type of data set: cell-based. As to the method: Antibody-Dependent Cellular Cytotoxicity (ADCC) Activity Assay: ADCC cytotoxic activity was measured by chromium-51 release in which effector natural killer (NK) cells kill (lyse) target cells via binding to the antibody or ADC on the target cells. WIL2-S cells were labeled with chromium-51, bound with antibody (0.1 ng/mL-10 μg/mL), and then incubated with NK cells at an effector to target ratio of 10:1 for 4 hours at 37° C., 5% CO2. Supernatant was removed to a filter plate and chromium-51 counts were measured with a TopCount (Perkin Elmer, Waltham, Mass.). Data was expressed as a percentage of maximum specific cell lysis determined with a positive control of 1% TritonX-100-treated cells (Sigma, St. Louis, Mo.).

Setting [8] is: Donor 4, T cell, NTB-A receptor # 5,547.
[9] abbreviates: Donor 5, T cell, NTB-A receptor # 7,979.
Setting [10] is: Donor 6, T cell, NTB-A receptor # 5,522.
Where [11] appears, read: Donor 1, B cell, NTB-A receptor # 6,811.
[12] abbreviates: Donor 2, B cell, NTB-A receptor # 11,037.
[13] abbreviates: Donor 3, B cell, NTB-A receptor # 8,771.

Sequence of cynomolgus-NTB-A (as listed by the source): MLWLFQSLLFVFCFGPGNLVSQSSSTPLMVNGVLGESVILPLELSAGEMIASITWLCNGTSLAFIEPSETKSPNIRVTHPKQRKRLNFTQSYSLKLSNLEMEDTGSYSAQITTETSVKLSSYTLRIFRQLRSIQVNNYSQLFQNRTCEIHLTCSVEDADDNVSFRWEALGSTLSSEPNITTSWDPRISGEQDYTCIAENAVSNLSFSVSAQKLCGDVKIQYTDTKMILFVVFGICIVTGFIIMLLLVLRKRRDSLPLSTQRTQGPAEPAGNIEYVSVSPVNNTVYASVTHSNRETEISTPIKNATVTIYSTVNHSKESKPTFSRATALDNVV

For the molecule “Campath: anti-CD52 antibody control [reference compound]”, the “ADCC Maximum % Specific Cell Lysis” value with Normal human T cells [1] is given as 60 ± 3.5%. Further, the “CDC Maximum % Specific Cell Lysis” value with Normal human T cells [2] is recorded as 108 ± 5.2%. For the same molecule, the “ADCP Maximum % Phagocytosis” value with Normal human T cells [3] is 57%.

By IC50 is commonly meant the midpoint of a concentration-inhibition curve. Take `CC[C@H](C)[C@@H]([C@@H](CC(=O)N1CCC[C@H]1[C@H](OC)[C@@H](C)C(=O)N[C@H](C)[C@@H](O)c1ccccc1)OC)N(C)C(=O)[C@@H](NC(=O)[C@@H](NC)C(C)C)C(C)C` [Free MMAE, monomethyl auristatin E, reference compound] (H-[NMeV]V[Dil][Dolaproine]-X1): the IC50 in data set [4] (Donor 4, T cell, NTB-A receptor # 5,547, free drug, read-out: IC50) was more than 1000 nM; in [4] (Donor 5, T cell, NTB-A receptor # 7,979, free drug, read-out: IC50), more than 1000 nM; in data set [4] (Donor 6, T cell, NTB-A receptor # 5,522, free drug, read-out: IC50), more than 1000 nM; in data set [5] (Donor 1, B cell, NTB-A receptor # 6,811, free drug, read-out: IC50), 3 nM; in data set [5] (Donor 2, B cell, NTB-A receptor # 11,037, free drug, read-out: IC50), 2 nM; in data set [5] (Donor 3, B cell, NTB-A receptor # 8,771, free drug, read-out: IC50), 5 nM.

B1: HDLD: humanized 20F3: HD (SEQ ID NO:8) with LD (SEQ ID NO:18); preferred variant (antibody, V domains shown)
VH: QIQLVQSGSELKKPGASVKVSCKASGYTFTNYGMNWVRQAPGQDLKWMGWINTYSGEPRYADDFKGRFVFSLDKSVNTAYLQISSLKAEDTAVYYCARDYGRWYFDVWGQGTTVTVSS
VL: QIVLSQSPATLSLSPGERATMSCRASSSVSHMHWYQQKPGQAPRPWIYATSNLASGVPARFSGSGSGTDYTLTISSLEPEDFAVYYCQQWSSTPRTFGGGTKVEIKR
modifications: mature heavy chain variable region of humanized 20F3 HD; mature light chain variable region of humanized 20F3 LD
notes: preferred variant
Broadly, the Kd is the free concentration of one partner at which half of the binding sites on the other are occupied at equilibrium, for simple one-to-one binding. A high value points to lower affinity. On to B1, for which the Cyno binding entry with cynomolgus-NTB-A is recorded as “retained binding; also recorded: positive”. Further, the Kd with human NTB-A is approximately 2 nM.

B2: h20F3wt: humanized 20F3 HDLD antibody with wild-type IgG1 (antibody, V domains shown)
VH: QIQLVQSGSELKKPGASVKVSCKASGYTFTNYGMNWVRQAPGQDLKWMGWINTYSGEPRYADDFKGRFVFSLDKSVNTAYLQISSLKAEDTAVYYCARDYGRWYFDVWGQGTTVTVSS
VL: QIVLSQSPATLSLSPGERATMSCRASSSVSHMHWYQQKPGQAPRPWIYATSNLASGVPARFSGSGSGTDYTLTISSLEPEDFAVYYCQQWSSTPRTFGGGTKVEIKR
For the molecule B2, the “ADCC Maximum % Specific Cell Lysis” value in the data set with Normal human T cells [1] was 38 ± 0.8%; in the data set with WIL2-S cell line [7], 21 ± 0.6%. In addition, the “CDC Maximum % Specific Cell Lysis” value in the data set with WIL2-S cell line [6] is reported as 0.0 ± 0.0%; in the data set on Raji cell line, 2.1 ± 0.6%; with Normal human T cells [2], 1.3 ± 2.8%.

B3: c20F3-1910(2) (conjugate)
VH: QIQLVQSGPELKKPGETVKISCKASGYTFTNYGMNWVKQAPGKDLKWMGWINTYSGEPRYADDFKGRFAFSLEKSANTAYLQINNLKNEDMATYFCARDYGRWYFDVWGTGTTVTVSS
VL: QIVLSQSPAILSASPGEKVTMTCRASSSVSHMHWYQQKPGSSPKPWIYATSNLASGVPARFSGSGSGTSYSLTISRVEAEDAATYYCQQWSSTPRTFGGGTKLEIKR
In the case of B3, the half-inhibitory concentration (IC50) is on record as >10,000 ng/mL in data set [4] (setting [8]); >10,000 ng/mL in [4] (setting [9]); >10,000 ng/mL in data set [4] (setting [10]); 1,468 ng/mL in [5] (setting [11]); 1,270 ng/mL in data set [5] (setting [12]); 3,421 ng/mL in data set [5] (setting [13]). In addition, the “ADC concentration with cytotoxic effect on resting B lymphocytes” value in data set [5] is on record as > 1,000 ng/mL.

B4: chimeric: chimeric form of the 20F3 anti-NTB-A antibody (antibody, V domains shown)
VH: QIQLVQSGPELKKPGETVKISCKASGYTFTNYGMNWVKQAPGKDLKWMGWINTYSGEPRYADDFKGRFAFSLEKSANTAYLQINNLKNEDMATYFCARDYGRWYFDVWGTGTTVTVSS
VL: QIVLSQSPAILSASPGEKVTMTCRASSSVSHMHWYQQKPGSSPKPWIYATSNLASGVPARFSGSGSGTSYSLTISRVEAEDAATYYCQQWSSTPRTFGGGTKLEIKR
For the molecule B4, the Cyno binding result with cynomolgus-NTB-A is reported as “positive”.

B5: c20F3-vcMMAE(4): chimeric 20F3 vcMMAE auristatin ADC, drug load 4 (conjugate)
VH: QIQLVQSGPELKKPGETVKISCKASGYTFTNYGMNWVKQAPGKDLKWMGWINTYSGEPRYADDFKGRFAFSLEKSANTAYLQINNLKNEDMATYFCARDYGRWYFDVWGTGTTVTVSS
VL: QIVLSQSPAILSASPGEKVTMTCRASSSVSHMHWYQQKPGSSPKPWIYATSNLASGVPARFSGSGSGTSYSLTISRVEAEDAATYYCQQWSSTPRTFGGGTKLEIKR
modifications: non-natural residues
As for B5, the IC50 in data set [4] (setting [8]), in data set [4] (setting [9]), in [4] (setting [10]), in data set [5] (setting [11]), in [5] (setting [12]) and in data set [5] (setting [13]) was >10,000 ng/mL throughout. Also, the “ADC concentration with cytotoxic effect on resting B lymphocytes” value in data set [5] is reported as “no cytotoxic effect”.
